Drawing on publication PMC3902945 (Nucleic Acids Research, 2013), this text covers Kd, koff and kon for three molecules.

Holding throughout (assay): SPR
In experiment [1] the target is C-terminal His6-tagged human UDG (uracil-DNA glycosylase) (human).
Experiment [2] addresses C-terminal His6-tagged SAUDG (S. aureus uracil-DNA glycosylase) (S. aureus) (UniProt Q6GJ88).
In experiment [3] the target is T1, C-terminal His6-tagged SAUDG (S. aureus uracil-DNA glycosylase) (S. aureus, UniProt Q6GJ88 1-218).
T1 sequence (looked up): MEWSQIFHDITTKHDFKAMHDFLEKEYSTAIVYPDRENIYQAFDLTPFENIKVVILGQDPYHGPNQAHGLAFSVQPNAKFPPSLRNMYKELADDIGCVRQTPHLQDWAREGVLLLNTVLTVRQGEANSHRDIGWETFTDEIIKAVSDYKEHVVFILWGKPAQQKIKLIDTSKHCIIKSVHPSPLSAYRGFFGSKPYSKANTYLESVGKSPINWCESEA

In experiment [1], “uracil-DNA glycosylase inhibitor from phage PBS2 (UGI) (from UniProt P14739 1-84) (natural protein)” yielded a Kd of 0.189 nM, a koff of 0.00119 s⁻¹ and a kon of 6.32e+06 M⁻¹ s⁻¹.
In experiment [2], “tag-free SAUGI (Staphylococcus aureus uracil-DNA glycosylase inhibitor) (natural protein)” gave a Kd of 1.2 nM, a koff of 0.00296 s⁻¹ and a kon of 2.47e+06 M⁻¹ s⁻¹. In experiment [1], this molecule yielded a dissociation constant Kd of 2.51 nM, a koff of 0.00124 s⁻¹ and a kon of 496000 M⁻¹ s⁻¹.

B1: uracil-DNA glycosylase inhibitor from phage PBS2 (UGI) (natural protein)
chain: MTNLSDIIEKETGKQLVIQESILMLPEEVEEVIGNKPESDILVHTAYDESTDENVMLLTSDAPEYKPWALVIQDSNGENKIKML
In experiment [3], B1 had a Kd of 0.685 ± 0.08 nM, an off-rate (koff) of 0.0061 ± 0.00068 s⁻¹ and a kon of 8.9e+06 ± 419000 M⁻¹ s⁻¹.
